According to the supplement of paper PMC12667976:
± gives the standard error.

B1: library; numbered along this chain (parent)
chain: MATDAALRRLLRLHRTEIAVAVDSAFPLLHALADHDVVPEDKFQETLHLKEKEGCPQAFHALLSWLLTQDSTAILDFWRVLFKDYNLERYGRLQPILDSFPKDVDLSQPRKGRKPPAVPKALVPPPRLPTKRKASEEARAAAPAALTPRGTASPGSQLKAKPPKKPESSAEQQRLPLGNGIQTMSASVQRAVAMSSGDVPGARGAVEGILIQQVFESGGSKKCIQVGGEFYTPSKFEDSGSGKNKARSSSGPKPLVRAKGAQGAAPGGGEARLGQQGSVPAPLALPSDPQLHQKNEDECAVCRDGGELICCDGCPRAFHLACLSPPLREIPSGTWRCSSCLQATVQEVQPRAEEPRPQEPPVETPLPPGLRSAGEEVRGPPGEPLAGMDTTLVYKHLPAPPSAAPLPGLDSSALHPLLCVGPEGQQNLAPGARCGVCGDGTDVLRCTHCAAAFHWRCHFPAGTSRPGTGLRCRSCSGDVTPAPVEGVLAPSPARLAPGPAKDDTASHEPALHRDDLESLLSEHTFDGILQWAIQSMARPAAPFPS

Variants of: B1
Experiment: AIRE transcriptional activation functional score (insulin promoter-GFP; nonsense median 0, synonymous median 1) (normalised score); higher = higher AIRE activity (more reporter activation)
Settings: with insulin promoter-GFP reporter in HEK293
Procedure: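 Deep mutational scan of full-length human AIRE (codon-optimized cDNA, DT-POPCode NNN libraries over three regions) integrated at a Bxb1 landing pad in HEK293 cells carrying an insulin core promoter-GFP reporter at a Flp-In site. Cells were sorted for the top 10% GFP about 14 days after transfection. Variant frequency log-ratios (select vs non-select, TileSeq) were rescaled so that the nonsense median is 0 and the synonymous median is 1, then averaged over biological replicates.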

| Variant | AIRE transcriptional activation functional score |
| --- | --- |
| A5Y | 0.397 ± 0.37 |
| Q173T | 1.44 ± 0.49 |
| R272L | 1.01 ± 0.29 |
| T391W | 1.58 ± 0.076 |
| T463F | 0.0316 ± 0.15 |
| T463N | 0.736 ± 0.57 |
| E53G | -0.0905 ± 0.58 |
| I181G | 0.602 ± 0.39 |
| I181A | 0.485 ± 0.14 |
| P542S | 1.07 ± 0.28 |
| P542W | 0.476 ± 0.038 |
| L81M | -0.00473 ± 0.12 |
| C434H | 0.179 ± 0.038 |
| C434E | 0.289 ± 0.11 |
| G201W | 0.489 ± 0.033 |
| R247M | 1.42 ± 0.11 |
| H458A | 0.981 ± 0.067 |
| H458G | 0.842 ± 0.14 |
| L285C | 0.894 ± 0.2 |
| G306P | 0.361 ± 0.21 |
| A386P | 0.921 ± 0.3 |
| A386D | 0.793 ± 0.33 |
| Q94T | 0.511 ± 0.44 |
| Q94N | -0.193 ± 0.58 |

| Variant | AIRE transcriptional activation functional score |
| --- | --- |
| R473I | 0.852 ± 0.71 |
| L62G | -0.253 ± 0.25 |
| L62I | -0.601 ± 0.32 |
| P544L | 1.19 ± 0.1 |
| L75I | 1.13 ± 0.5 |
| L75D | -0.0941 ± 0.23 |
| C322M | 1.1 ± 0.068 |
| G260R | 1.04 ± 0.27 |
| A193F | 0.268 ± 0.33 |
| D312S | 0.764 ± 0.21 |
| M536G | 0.186 ± 0.32 |
| S239H | 1.27 ± 0.098 |
| F82Q | 0.378 ± 0.069 |
| V479P | 0.967 ± 0.091 |
| C419G | 0.96 ± 0.41 |
| P460C | -0.358 ± 0.13 |
| A300T | 0.981 ± 0.46 |
| A300Y | 0.856 ± 0.26 |
| S412V | 1.13 ± 0.17 |
| T183M | 0.663 ± 0.087 |
| S169A | 0.813 ± 0.42 |
| P289R | 1.19 ± 0.28 |
| P289N | 0.167 ± 0.083 |
| R190K | 0.53 ± 0.049 |

| Variant | AIRE transcriptional activation functional score |
| --- | --- |
| R190W | 0.069 ± 0.047 |
| T232W | 0.451 ± 0.055 |
| T232N | 0.834 ± 0.11 |
| A352G | 0.813 ± 0.17 |
| S339G | 0.951 ± 0.37 |
| S339T | 1.12 ± 0.24 |
| R132G | 0.129 ± 0.2 |
| A404G | 0.91 ± 0.49 |
| G438M | 1.31 ± 0.048 |
| E354Y | 1.38 ± 0.2 |
| H30T | -0.172 ± 0.23 |
| L414A | 1.49 ± 0.098 |
| S64N | 0.278 ± 0.14 |
| S64W | 0.42 ± 0.18 |
| A493F | 1.17 ± 0.11 |
| R89L | -0.165 ± 0.72 |
| R89V | -3.54 ± 0.25 |
| A284E | 0.63 ± 0.16 |
| A284Q | 1.39 ± 0.3 |
| P380L | 0.882 ± 0.31 |
| D514E | 0.931 ± 0.14 |
| A134N | 1.63 ± 0.051 |
| K294C | 1 ± 0.18 |
| K294G | 0.728 ± 0.32 |

| Variant | AIRE transcriptional activation functional score |
| --- | --- |
| P331N | 1.23 ± 0.25 |
| P492N | 1.18 ± 0.092 |
| P492I | 1.13 ± 0.2 |
| L283H | 1.15 ± 0.15 |
| L283F | 1.17 ± 0.21 |
| F77Q | -0.44 ± 0.62 |
| K501T | 1.04 ± 0.27 |
| L519Y | 1.11 ± 0.83 |
| L519M | 0.992 ± 0.07 |
| P286A | 0.97 ± 0.35 |
| Q69A | 0.0258 ± 0.39 |
| V377T | 1.37 ± 0.17 |
| V377G | 1.16 ± 0.28 |
| V348G | 1.04 ± 0.15 |
| M388H | 1.2 ± 0.39 |
| F459Q | 1.14 ± 0.034 |
| H415E | 1.32 ± 0.05 |
| H415Q | 0.783 ± 0.33 |
| D304L | 0.299 ± 0.18 |
| D304A | 0.858 ± 0.16 |
| D23G | 0.031 ± 0.52 |
| D23H | 1.33 ± 0.035 |
| C302N | 0.531 ± 0.29 |
| C302T | 0.263 ± 0.13 |

| Variant | AIRE transcriptional activation functional score |
| --- | --- |
| A152F | 1.55 ± 0.15 |
| K243A | 0.56 ± 0.47 |
| P176A | 1.33 ± 0.48 |
| P116G | 0.577 ± 0.51 |
| F525N | -0.231 ± 0.12 |
| R139F | 1.51 ± 0.4 |
| R139K | 1.37 ± 0.33 |
| R92F | 0.28 ± 0.39 |
| E517L | 0.0571 ± 0.083 |
| P350C | 0.761 ± 0.15 |
| V38A | -0.245 ± 0.75 |
| W531F | 0.12 ± 0.12 |
| F26P | 0.00822 ± 0.41 |
| P282D | 1.05 ± 0.057 |
| D515Y | 0.405 ± 0.039 |
| A496Y | 1.07 ± 0.38 |
| S196G | 0.938 ± 0.23 |
| A413Q | 1.01 ± 0.047 |
| A413R | 0.964 ± 0.14 |
| G486P | 1 ± 0.4 |
| G486L | 1.03 ± 0.4 |
| K114V | 0.691 ± 0.86 |
| K114C | 1.06 ± 0.095 |
| A246E | 0.55 ± 0.12 |

| Variant | AIRE transcriptional activation functional score |
| --- | --- |
| V192W | 0.522 ± 0.023 |
| K253S | 0.754 ± 0.35 |
| E522G | 0.352 ± 0.17 |
| R174W | 2.14 ± 0.036 |
| C446Q | -0.0282 ± 0.15 |
| R9P | 0.671 ± 0.54 |
| R9M | 0.633 ± 0.12 |
| P539R | 0.158 ± 0.18 |
| P119Q | 1.02 ± 0.37 |
| P162Q | 1.54 ± 0.23 |
| G208N | 0.00613 ± 0.11 |
| A451S | 0.496 ± 0.4 |
| D410G | 0.967 ± 0.16 |
| D410I | 1.19 ± 0.089 |
| Y231D | 0.734 ± 0.077 |
| K222C | -0.312 ± 0.16 |
| S402P | 1.07 ± 0.09 |
| S402F | 0.518 ± 0.41 |
| E423V | 1.2 ± 0.16 |
| E423H | 1.2 ± 0.13 |
| A170R | 1.29 ± 0.37 |
| I533M | 1.13 ± 0.36 |
| I533G | 0.261 ± 0.029 |
| L106Y | 1.27 ± 0.37 |

| Variant | AIRE transcriptional activation functional score |
| --- | --- |
| L106V | 0.581 ± 0.31 |
| L106W | 0.739 ± 0.14 |
| Q189E | 1.01 ± 0.23 |
| A510G | 0.977 ± 0.22 |
| A21F | -0.0679 ± 0.18 |
| L397A | 0.914 ± 0.26 |
| G263Y | 1.34 ± 0.25 |
| A145N | 0.349 ± 0.41 |
| G150W | 2.25 ± 0.039 |
| S535A | 1.1 ± 0.35 |
| E298G | 1.13 ± 0.27 |
| V484F | 0.8 ± 0.35 |
| V484S | 0.906 ± 0.29 |
| G228C | 0.71 ± 0.39 |
| Q157Y | 1.31 ± 0.54 |
| V20T | 0.0422 ± 0.34 |
| L67G | -0.0868 ± 0.65 |
| M184Y | 0.481 ± 0.1 |
| D103S | 1.85 ± 0.66 |
| A258R | 0.0043 ± 0.35 |
| K165R | 0.872 ± 0.69 |
| K165Y | 0.91 ± 0.26 |
| K165L | 0.369 ± 0.6 |
